The target of test [1] is T1, full-length human CD4 on cells (human, UniProt P01730 26-458).
T1 construct: whole, on cells; Stably expressed (CHO-hCD4, HEK293-hCD4) or endogenous (PBMCs, human CD4+ cells from blood, HPB-ALL, T cell lines); also called hCD4; cell-resident hCD4
Description: flow cytometry on cells expressing hCD4.
Description: (§1) (E) EC₅₀ determination by flow cytometry.
(§2) For each staining condition 200,000 cells were incubated with suitable dilution series of CD4 nanobodies at 4° C. for 30 min. Cells were washed two times and for detection Cy5 AffiniPure Goat Anti-Alpaca IgG, VHH domain (Jackson ImmunoResearch) was applied for 15 min. […] Final data analysis was performed via FloJo10® software.

Test [2] deals with T2, recombinant extracellular portion of human CD4 (domains D1-4) (human, UniProt P01730 26-396, for BLI biotinylated with 3-fold molar excess of biotin-N-hydroxysuccinimide ester; not biotinylated in HDX-MS).
T2 construct: extracellular domain; also called recombinant hCD4; extracellular domain of hCD4
Description: BLI, biotinylated extracellular domain of hCD4 on streptavidin sensor, serial dilutions of Nb. (Biolayer interferometry detects binding as a change in optical thickness at a sensor tip.)
Description: (§3) To determine the binding affinity of purified Nbs to recombinant hCD4, biolayer interferometry (BLItz, ForteBio) was performed. First, CD4 was biotinylated by 3-fold molar excess of biotin-N-hydroxysuccinimide ester. CD4 was then immobilized at single-use high-precision streptavidin biosensors (SAX) according to manufacturer's protocols. […] As a reference run, PBS was used instead of Nb in the association step. […] Recorded sensograms were analyzed using the BLItzPro software and dissociation constants (KD) were calculated based on global fits.
(§4) To quantitatively assess affinities, biolayer interferometry (BLI) measuring serial dilutions of Nbs were performed on the biotinylated extracellular domain of hCD4 immobilized at the sensor tip.

For test [3], the target named is T2, recombinant extracellular portion of …. Description: biolayer interferometry, biotinylated hCD4 immobilized on streptavidin biosensors.
Description: (§5) (D) For biolayer interferometry-based affinity measurements, biotinylated hCD4 was immobilized on streptavidin biosensors.
as §3
Test [4] addresses T1, full-length human CD4 on cells. Description: flow cytometry, percentage of positively stained hCD4-expressing cells against Nb concentration, four-parametric sigmoidal model; the curve rises only to about 3 % at the highest concentration near 10^-4.5 M. On the technique in general: A flow cytometer gives signals particle by particle.
For test [5], the target named is T2, recombinant extracellular portion of …. Description: BLI (affinity constants predetermined by BLI analysis).
Description: as §3
In test [6] the target is T1, full-length human CD4 on cells. Description: flow cytometry on HEK293-hCD4 cells, detection with anti-VHH Cy5 antibody.
Description: For each staining condition 200,000 cells were incubated with suitable dilution series of CD4 nanobodies at 4° C. for 30 min. Cells were washed two times and for detection Cy5 AffiniPure Goat Anti-Alpaca IgG, VHH domain (Jackson ImmunoResearch) was applied for 15 min. […] After two washing steps, samples were resuspended in 200 μl FACS buffer and analyzed with a BD FACSMelody Cell Sorter. Final data analysis was performed via FloJo10® software.
In addition, corresponding EC50 values were determined with full-length plasma membrane-located hCD4 on HEK293-hCD4 cells by flow cytometry.
Test [7] has the same target. The experiment in a line: flow cytometry, percentage of positively stained hCD4-expressing cells against Nb concentration, four-parametric sigmoidal model.
For test [8], the target named is T2, recombinant extracellular portion of …. Description: biolayer interferometry, biotinylated hCD4 immobilized on streptavidin biosensors; box in the panel prints [CD4_Nb1]: 15.625-125 nM.
Description: as §3
Test [9] shares this target. Description: BLI.
For test [10] the target is unchanged. The experiment in a line: biolayer interferometry on human CD4; the sheet prints Conc: 0.625 - 5 nM, four sensorgrams up to about 0.17 nm.
Test [11] addresses T1, full-length human CD4 on cells. Description: flow cytometry on HEK293-hCD4 cells, detection with anti-VHH Cy5 antibody; flow cytometry, full-length hCD4 on HEK293-hCD4 cells.
The target of test [12] is T2, recombinant extracellular portion of …. The experiment in a line: BLI, biotinylated extracellular domain of hCD4 on streptavidin sensor, serial dilutions of Nb; BLI on biotinylated extracellular domain of hCD4 at the sensor tip.
Description: as §3, §4
The target in test [13] is T1, full-length human CD4 on cells. Description: flow cytometry, percentage of positively stained hCD4-expressing cells against Nb concentration; the subscript is redrawn as 56, EC50 by the legend paragraph 99.
Description: as §1, §2
The target in test [14] is T2, recombinant extracellular portion of …. The experiment in a line: biolayer interferometry, biotinylated hCD4 immobilized on streptavidin biosensors, four Nb concentrations; the subscript is redrawn as O, KD by the legend paragraph 99.
Description: as §5, §3
The target of test [15] is T3, hCD4 domain-deletion mutant lacking domain D1 (CD4_ΔD1) (human, UniProt P01730 26-458).
T3 construct: whole, on cells; Transiently expressed in CHO wt cells; also called pcDNA3.1_CD4_ΔD1_IRES-eGFP
Description: live-cell immunofluorescence of CHO cells transiently expressing the domain-deletion mutant, CF568-labeled Nb.

For test [16], the target named is T4, hCD4 domain-deletion mutant lacking domains D1 and D2 (CD4_ΔD1ΔD2) (human, UniProt P01730 26-458).
T4 construct: whole, on cells; Transiently expressed in CHO wt cells; also called pcDNA3.1_CD4_ΔD1ΔD2_IRES-eGFP
The test is described as above.

Test [17] addresses T5, murine CD4 on mouse CD4+ cells (mouse, UniProt P06332 27-457).
T5 construct: whole, on cells; also called murine CD4+ lymphocytes
T5 sequence (looked up): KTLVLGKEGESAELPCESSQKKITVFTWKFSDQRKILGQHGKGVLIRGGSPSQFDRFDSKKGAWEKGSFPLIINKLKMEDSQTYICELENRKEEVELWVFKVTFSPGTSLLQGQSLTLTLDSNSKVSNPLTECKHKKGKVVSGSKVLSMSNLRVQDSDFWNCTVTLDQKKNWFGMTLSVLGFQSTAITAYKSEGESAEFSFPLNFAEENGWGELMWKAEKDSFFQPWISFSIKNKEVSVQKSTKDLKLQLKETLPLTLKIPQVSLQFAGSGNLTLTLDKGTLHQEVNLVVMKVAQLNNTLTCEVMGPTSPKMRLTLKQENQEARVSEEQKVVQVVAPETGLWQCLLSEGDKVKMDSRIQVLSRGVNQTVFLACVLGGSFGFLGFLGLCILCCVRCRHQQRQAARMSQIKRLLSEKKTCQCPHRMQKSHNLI
The experiment in a line: flow cytometry of mouse CD4+ cells from spleen and lymph nodes.

Test [18] has as its target T1, full-length human CD4 on cells. Description: in vitro radioimmunoassay on HPB-ALL cells (data not shown).
For test [19] the target is unchanged. The experiment in a line: live-cell immunofluorescence of CHO-hCD4 cells, unlabeled Nb detected with anti-VHH Cy5 secondary antibody.

Substitutions are numbered along the chain they refer to.

The values below come from US20240209088A1 (NMI NATURWISSENSCHAFTLICHES UND MEDIZINISCHES INSTITUT AN …, published 2024).

B1: CD4-Nb4 (VHH)
VHH: EVQLQESGGALAQPGGSLRLSCAVSGFTFGTYGMGWLRQAPGKGREFVAAINWIHGGEIYADSVKGRFTISKDNAKNTLYLQMDSLKPEDTAVYYCAARSGTSLYTGVDEYQYWGQGTQVTVSS
notes: Unlabeled, expressed in E. coli
As for B1, the EC50 (commonly the concentration at which the effect is half-maximal) in test [1] was found to be 7360 nM; in test [4] it was 7.36 µM. In test [2], the dissociation constant Kd (as a rule, a measure of binding affinity in units of concentration) was 135 nM. The dissociation rate constant (koff) (usually the first-order rate constant of dissociation) in test [3] was found to be 0.016 s⁻¹. Further, the on-rate constant (kon) (as a rule, a measure of how fast the partners come together) in test [3] worked out at 118000 M⁻¹ s⁻¹.

B2: CD4-Nb2 (VHH)
VHH: EVQLVESGGGSVQPGGSLRLSCGASGFDVDYYAIGWFRQAPGKEREGVSCIASSDGSTYYADSVKGRFTISRDNAKNTVYLQMNSLKPEDTAVYYCAADATCPYYCSGSVCYLETGMDYWGEGTLVTVSS
notes: as for B1
As to B2, the dissociation constant (Kd) in [5] is 6.5 nM; in test [2], about 7 nM; in [8] it was 6.53 nM. Further, the concentration giving a half-maximal response (EC50) in test [1] is 0.73 nM; in test [6] it was about 0.7 nM; in [7], 0.73 nM. In [3], the koff worked out at 0.000795 s⁻¹. Also, the kon in test [3] is 122000 M⁻¹ s⁻¹.

B3: mutant CD4-Nb1 (all lysine residues replaced with arginine residues) (VHH)
VHH: EVQLVESGGGLVQPGGSLRLSCAASGFTFSRLAMSWHREPPGRGREWLADIDSSGDTTDYLASVRGRFTISRDNARNTLYLQMDSLRSEDTGVYYCASREDPPGYWGQGTQVTVSS
notes: Expressed in bacteria; also called mutant nanobody; mutant version of the nanobody
On to B3, for which the figures for the dissociation constant Kd in test [9] and in [10] were about 1 nM and 1 nM, respectively.

B4: CD4-Nb1 (VHH)
VHH: B3 VHH with R31K, R43K, R65K, R76K, R87K
notes: Unlabeled, expressed in E. coli; also called non-mutated CD4-Nb1
Turning to B4, the Kd in [5] is 5.1 nM; in test [12] it was about 5 nM; in test [14], 5.09 nM. The EC50 in test [1] is 0.74 nM; in test [11] it was about 0.7 nM; in [13], 0.74 nM. Besides, the koff in test [3] was found to be 0.000613 s⁻¹. In test [3], the kon was 121000 M⁻¹ s⁻¹.

B5: CD4-Nb1 sortase-coupled to the fluorescent dye CF568 (VHH)
VHH: B3 VHH with R31K, R43K, R65K, R76K, R87K
modifications: C-terminus sortase-coupled to the CF568-coupled peptide H-Gly-Gly-Gly-Doa-Lys-NH2 (labeling ratio 1:1)
notes: also called CF568-labeled CD4-Nb1; CD4-Nbs-CF568
On to B5, for which the binding result in test [15] and in [16] was “no binding (tested: not printed on the sheet)” each time.

B6: CD4-Nb1-Cy5.5 (VHH)
VHH: B3 VHH with R31K, R43K, R65K, R76K, R87K
modifications: C-terminus sortase-coupled to H-Gly-Gly-Gly-propyl-azide, then click-labeled with DBCO-Cy5.5
notes: also called hCD4-Nb1-Cy5.5; Cy5.5-labeled CD4-Nb1
On to B6, for which, in test [17], the binding result was “no binding”.

B7: ^64Cu-CD4-Nb1 (VHH)
VHH: B3 VHH with R31K, R43K, R65K, R76K, R87K
modifications: azide-coupled C-terminus reacted with BCN-NODAGA and radiolabeled with 64Cu
notes: also called ^64Cu-hCD4-Nb1
For B7, in test [18], the “fold over the non-specific binding to CD4-negative DHL cells or of the 64Cu-GFP-Nb control” value is about 30 times.

B8: CD4-Nb3 (VHH)
VHH: HVQLVESGGGLVQPGGSLRLSCAVSGFALEYYAIGWFRQAPGKERERVACMSASGGVINYSESVKGRFTISRDNAKNTVYLQMNTLKPEDTAVYYCAAEKAYYGSSWAECYLMMDYWGKGTLVTVSS
notes: as for B1
Consider B8, for which the Kd in test [5] was 75.3 nM; in test [2], 75 nM. Moreover, the EC50 in test [1] and in test [7] was 533 nM in each case. Further, the koff in test [3] is 0.00618 s⁻¹. Also, the on-rate (kon) in test [3] worked out at 82000 M⁻¹ s⁻¹.

B9: CD4-Nb5 (VHH)
VHH: EVQLQESGGGLVQAGGSLRLSCKVSGRTFGTYAMGWFRQAPGKEREFVAVISWIKGNTYVADSVLGRFTISRDNARNWLHLQMYSLKPEDTATYYCAASSTVTLPTTLDPYTYWGQGTPVTVSS
notes: Unlabeled; excluded from further analyses after the live-cell staining
As for B9, the binding result in [19] is given as “no binding (tested: not printed on the sheet)”.
